# Measurements from patent US10947523B2, “Biotechnological production of L-tryptophan” (Technische Universitaet Hamburg, priority 2017, dated 2021).
# Tests used:
# [1] = two-domain form, reference [31]; cited from earlier work
# [2] = Enzyme assay of wild-type and mutant eIGPs (specific activity); format: biochemical, Escherichia coli
# Experimental: The activity of IGPs from E. coli was measured by monitoring the formation of IGP via absorbance at 278 nm with a molar extinction coefficient value of 5500 M^−1 cm^−1 [24]. Assays were performed in 50 mM HEPPS pH 7.5, 4 mM EDTA at 30° C. with 20-25 μg/mL of purified enzymes in cuvettes. To investigate the effect of anthranilate on the activity of IGPs, the activities were measured in the presence of different concentrations of anthranilate. Unless stated otherwise, the reactions were started by adding 180 μM of the substrate CdRP. The synthesis of CdRP was performed by following the improved method reported by Kirschner et al.. The concentration of the synthesized CdRP in the stock solution was determined by measuring the concentrations of the product IGP with completely converted reactions.
# […]. Therefore, the effect of anthranilate on the activity of this mutants was not investigated. […] […].
molecule,measurement,setting,value
"S60A: E. coli IGPs mutant S60A, SEQ ID NO: 3 (protein, EcTrpC S60A) MQTVLAKIVADKAIWVEARKQQQPLASFQNEVQPSTRHFYDALQGARTAFILECKKASPAKGVIRDDFDPARIAAIYKHYASAISVLTDEKYFQGSFNFLPIVSQIAPQPILCKDFIIDPYQIYLARYYQADACLLMLSVLDDDQYRQLAAVAHSLEMGVLTEVSNEEEQERAIALGAKVVGINNRDLRDLSIDLNRTRELAPKLGHNVTVISESGINTYAQVRELSHFANGFLIGSALMAHDDLHAAVRRVLLGENKVCGLTRGQDAKAAYDAGAIYGGLIFVATSPRCVNVEQAQEVMAAAPLQYVGVFRNHDIADVVDKAKVLSLAAVQLHGNEEQLYIDTLREALPAHVAIWKALSVGETLPAREFQHVDKYVLDNGQGGSGQRFDWSLLNGQSLGNVLLAGGLGADNCVEAAQTGCAGLDFNSAVESQPGIKDARLLASVFQTLRAY",efficiency (Kcat/Km) relative to the wild-type enzyme,[1],about 30%
same,activity relative to the wild-type enzyme,"[2]; 18 μM CdRP, absence of anthranilate",74%
same,Specific activity in the absence of anthranilate,[2]; CdRP 18 μM,1.60 ± 0.03 µmol/min/mg
same,Specific activity in the absence of anthranilate,[2]; CdRP 60 μM,2.05 ± 0.06 µmol/min/mg
same,Specific activity in the absence of anthranilate,[2]; CdRP 180 μM,2.13 ± 0.01 µmol/min/mg
same,anthranilate resistance / sensitivity compared with wild-type eIGPs (in words),[2]; FIG. 3,significantly improved
same,specific activity compared with wild type in the presence of anthranilate,"[2]; more than 0.1 mM anthranilate, 180 μM CdRP",higher than that of the wild type
